PMC4821243, “Heparin binding preference and structures in the fibroblast growth factor family parallel their evolutionary diversification” (Open Biology, 2016)

Target: the molecule itself
Experiment: SEC-MALS; Superdex 200 HR10/300 in series with Wyatt Dawn8+ and Optilab T-rEX, 22°C; 100 µl, 100 µg protein; 150 mM NaCl with 50 mM HEPES or 50 mM Tris-Cl, pH 7.4; 0.75 ml/min

B1: Histag-FGF20 (recombinant human fibroblast growth factor 20) (natural protein)
chain: not shown
notes: Fibroblast growth factor 20, human; Made in E. coli, so not glycosylated; source: Escherichia coli, expressed and purified as described [37]
  stoichiometry N: 2
